Source: publication PMC6287947

How the values were obtained:
taxol-stabilized MTs [1] = test: co-sedimentation; 6His-Prp31 (10 nM) or 6His-Sf3A2 (13 nM) incubated at RT for 30 min with 2 μM taxol-stabilized MTs (or 2 μM tubulin without Taxol), centrifuged at 100,000 g at RT for 40 min; supernatants and pellets by Western blotting
taxol-stabilized MTs [2] = test: co-sedimentation; 6His-Prp31 (10 nM) or 6His-Sf3A2 (13 nM) with increasing amounts of taxol-stabilized MTs (0.25–2 μM of tubulin dimers in MT polymers), 25 mM NaCl, RT 30 min, 100,000 g 40 min; SDS-PAGE and Coomassie staining; three independent experiments

percent co-sedimented with MTs (taxol-stabilized MTs [1])	percent co-sedimented with MTs (taxol-stabilized MTs [2])	Molecule
> 80%	> 80%	6His-Sf3A2 (from UniProt Q9VU15 1-264) (natural protein)
> 80%	> 80%	6His-Prp31 (natural protein) MSLADELLADLEEDNDNELEEEDSEMASAEDESLLAEKLAKPAPNLMDVDVTVQSVRELCKLRDSERLKNTLQQIEHYASRQRTAAEMLGSVESDPEYCLIVDANAIAVDIDNEISIVHKFTKEKYQKRFPELDSLIVGEIEYLLAVKELGNDLDQVKNNEKLQAILTQATIMIVSVTASTTQGTMLTPAEKAKIDEACEMAIELNNFKSKIYEYVESRMTFIAPNLSMIVGASTAAKLLGIAGGLSKLSKMPACNVQVLGAQKKTLSGFSQTQMLPHTGYVYYSQIVQDTAPDLRRKAARLVAAKSVLAARVDACHESVHGEIGLRFKEDVEKKLDKLQEPPPVKFIKPLPKPIEGSKKKRGGKRVRKMKERYALTEFRKQANRMNFGDIEEDAYQGDLGYSRGTIGKTGTGRIRLPQVDEKTKVRISKTLHKNLQKQQVYGGNTTVKRQISGTASSVAFTPLQGLEIVNPQAAERSQTEANAKYFSNTSGFMSVGQRTT
